{"source": "the nanobody polyreactivity screen of Harvey et al. (2022)"}
{"assay": "yeast display, Sf9 membrane polyspecificity reagent, FACS + sequencing; frameworks hold sequencing errors", "summary_of_the_method": "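Galactose-induced (36–48 hours) yeast carrying a synthetic nanobody display library were exposed to 10% biotinylated, detergent-solubilized Sf9 membrane reagent at 4 °C for 1 hour. FACS followed streptavidin microbead enrichment, using low and high (top ~1%) gates for expression (anti-HA) and reagent binding (streptavidin). Colony PCR, MiSeq 2 × 250 sequencing and CDR-length filtering followed. Labels for polyreactivity reflect the gate of origin.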"}
{"sequence": "QVQLVESGGGLVQARCSLRLSCDASGSIFPHYAMGWYRQAPGKEREFVATISGSTGRTYYADSVKGRFTISRDYAKNTVYLQMNSLKTEDTAVYYCATSVGYYLPPIKYDYWGQGTQVTVSS", "polyreactivity (PSR sort gate)": "low polyreactivity"}
{"sequence": "QVQLVESGGGLVQAGGSLRLSCAASGLTIVWYGMVWYRQAPGKERELVAAITRGGSTYYADSVKGRFTISRDNAKNTVYLQMNSLKPEDTAVYYCAATSTYRARFEYWGQGTQVTVSS", "polyreactivity (PSR sort gate)": "high polyreactivity"}
{"sequence": "QVQLVESVGGLVQAGGSLRLSCAASGRIFYRYGMGWYRQAPGKERELVASITRGGSTYYADSVKGRFTISRDNAKNTVYLQMNSLKPEDTAVYYCATKSSAGYDYWGQGTQVTVSS", "polyreactivity (PSR sort gate)": "low polyreactivity"}
{"sequence": "QVQLVESGGGLVQAGGSRRLSCAASGLIFYYYAMGWYRQAPGKERELVAAISGSGGSTYYADSVKGRFTISRDNAKNTVYLQMNSLKPEDTAVYYCNKLSWRKYLGYEYWGQGTQVTVSS", "polyreactivity (PSR sort gate)": "high polyreactivity"}
{"sequence": "QDQLVESGGGLVQAGGSLRLSCAASGLIFYEYAMGWYRQAPGKERELVAAISRGGRTYYADSVKGRFTISRDNAKNTVYLQMNSLKPEDTAVYYCADRHWPEKYDYWGQGTHVTVSS", "polyreactivity (PSR sort gate)": "high polyreactivity"}
{"sequence": "QVQLVESAAGLVQAGGSLRLSCAASGFTFSFYTMGWYRQAPAKDRELVAAISSGGTPYYADSVKGRFTISRDNAKNTVYLQMNSLKPEDTAVYYCAAYGRYASWIEFYSNYDYWGQGTQVTVSS", "polyreactivity (PSR sort gate)": "low polyreactivity"}
{"sequence": "QVQLVESGGGLVQAGGSLRLSCAASGFIFYGYVMGWYRQAPGKERELVAAITYNGGRTYYADSVKGRFTISRDNAKNTVYLQMNSLKPEDTAVYYCAALGYDGDYDYWGQGTQVTVSS", "polyreactivity (PSR sort gate)": "low polyreactivity"}
{"sequence": "QVQLVESGGGLVQAGGSLRLSCAASGRIFYSNAMGWYRQAPGKERELVAVIRRTGSTYYAASVKGRFTISRDNAKNTVYLQMISQIPEDTAVYYCATSIPYGRGGNRYVYWGQGTQVTVSS", "polyreactivity (PSR sort gate)": "high polyreactivity"}
{"sequence": "LEQLVESGGGLVHAGGSLRLSCAASRSNFPQYTLGWNRQAPVKERELVAAISNYGSSTYYADSEKGRFTISRDYAKNSVSLQMNSLKPEDTAVYECNADDYGYYPGVNYWGQGTQVTVSS", "polyreactivity (PSR sort gate)": "low polyreactivity"}
{"sequence": "QVQLVESGGGLVQAGGSLRLSCAASGSTFWYNAMGWYTQAPGKERELVAAITWTGDGTYYADSVKGRFTISRDNAKNTVYLQMNSLKPEDTAVYYCAAAYFQWSTSIVGLDAWYDYWGQGTQVTVSS", "polyreactivity (PSR sort gate)": "low polyreactivity"}
{"sequence": "QVQLVESGGCLVQAGGSLRLSCAASGRTFGFYAMGWYRQAPGKERELVAGITQSGGSTYYADSVKGRFTISRDNAKNTVYLQMNSLKTEDTAVYYCATDYQQLDDYWGQGTQVTVSS", "polyreactivity (PSR sort gate)": "low polyreactivity"}
{"sequence": "QVQLVESGGWLVQAGGSLRLSCDASGITFYRNAVGWYRPAPGKERELVADITVSGGSTYYADSVKGRFTISRDNAKNTVYLQMNSLKPEDTAVYYCNAGLYQYDVWAYYIRYDYWGQGTQVTVSS", "polyreactivity (PSR sort gate)": "low polyreactivity"}
{"sequence": "QVQLVESGGGLVQAGGSLRLSCAASGFIFPSYAMGWYRQAPGKERELVATISKRVATTYYADSVKGRFTISRDNAKNTVYLQMNSLKPEDTAVYYCAAAYRGYARHDYWGQGTQVTVSS", "polyreactivity (PSR sort gate)": "high polyreactivity"}
{"sequence": "QVQLVESGGGLVQAGGSLRLSCAASGRIFGTNARGWYRQAPGKERELVADITSGGSTNYADSVKGRFTISRDNAKNTVYLQMNSLKPEDTAVYYCAADVIGDLRWYRDEYWGQGTQVTVSS", "polyreactivity (PSR sort gate)": "low polyreactivity"}
{"sequence": "QVQLEESGGGLVQAGGSLRLSCAASGSTFYYNAIGWYRQAPGKERELVAGITSGTGTKYADSVKGRFTISRDNAKNRVYLQMNSLKPEDTAVYYCAKDGTRYGSAPFGYWGQGTQVTVSS", "polyreactivity (PSR sort gate)": "low polyreactivity"}
{"sequence": "QVQLVESGGGLVQAGGSLRLSCAASGRTFGRYAMGWYRQAPGKAREFVAAISSSGGSTSYADSVKGRFTISRDNAKNTVYLQMNSLKPEDTAVYYCNADAYRITRYGYDYWGQGTQVTVSS", "polyreactivity (PSR sort gate)": "high polyreactivity"}
{"sequence": "QVQLQESGGGLVQAGGSQRLSCAASGTITVLYKMGRFRQAPGKEREFVASINYGTSTYYADSVKGRFTLSRDSAKNTVYLQMNSLKPEDTAVYYCAAAYRWQDVYRYWGQGTQVTVSS", "polyreactivity (PSR sort gate)": "low polyreactivity"}
{"sequence": "QVQLVESGGGLVQAGGSLRLSCAASGSTFDFNAMGWYRQAPGKERELVAAITSGGGSTYYADSLKGRFTISRDNAKNTVYLQMNSLKPEDTAVYYCAADDIVLRYDYWGQGTQVTVSS", "polyreactivity (PSR sort gate)": "low polyreactivity"}
{"sequence": "QDQHVESEVGLVQAGGSLRLSCAASGSTVYPYAKGWYRKAPGKERELDAAISSGGSTYYADSVKGRFTISRDNAKNTVYLQMNSLKPEDTAVYYCAADFYYAYYWGQGSQVTVSS", "polyreactivity (PSR sort gate)": "low polyreactivity"}
{"sequence": "QVQLQESSGGLVQAGGSLRMSCAASGTIFNFHIMGWYRQAPGKEREFVAAISYGTSTYYADSVKGRFTISRDNAKNTVYLQMNSQKPEDTAVYYCAVFDYLEVYCWYWGQGTQVTVSS", "polyreactivity (PSR sort gate)": "low polyreactivity"}
{"sequence": "QVQLVESGGGLVQAGGSLRLSCAASGRTFENNAMGWYRQAPGKERELVATIRYSGTSTYADSVKGRFTISRDNAKNTVYLQMNSLKPEDTAVYYCAKQVRYYGYKYNYWGQGTQVTVSS", "polyreactivity (PSR sort gate)": "high polyreactivity"}
{"sequence": "QVQLVESGGGLVQAGGSLRLSCAASGSTFTVNAMGWYRQAPGKDRELVADINWIGGATYYADSVKGRFTSSRDNAKNTVYLQMNSLKPEDTALYYCNADVWEYFTYSFTGFGWYDYWGQGTQVTVSS", "polyreactivity (PSR sort gate)": "high polyreactivity"}
{"sequence": "QVQLVESGGGLVQAGGSLRLTCAASGRTFGINAMGWYRQAPGKERELVAAIDSIDGTTYYADSVKGHFTISRDNAKNTVYLPMNRLKPAATAVYYCAAEFISSYDYWGQGTQVTVSS", "polyreactivity (PSR sort gate)": "high polyreactivity"}
{"sequence": "QVQLVESGGGLVQAGGSLRLSCAASGSTFGFYAMGWYRQAPGKERELVAVISSGGGTNYADSVKGRFTISRDNAKNTVYLQMNSLKPEDTAVYYCAASRFALSGGYDYWGQGTQVTVTS", "polyreactivity (PSR sort gate)": "low polyreactivity"}
{"sequence": "QVQLVESGGGLVQAGGSLRLSCAASGNTFLWYAMGWYRQAPGKEREFVAAIRRSGASTYYADSVKGRFTISRDNAKNTVYLQMNSLKPEDTAVYYCAAKFVYWSGAVYTRYDYWGQGTQVTVSS", "polyreactivity (PSR sort gate)": "high polyreactivity"}
{"sequence": "QVQLVESGGGLVQAGGSLRLSCAASGSIFFYAMGWYRQARGKERELVADITYTGGSKYADSVKGRFTISRDNAKNTVYLQMNSLKPEDTAVYYCAKLDGGLFDYWGQGTQVTVSS", "polyreactivity (PSR sort gate)": "low polyreactivity"}
{"sequence": "QVQLVESGGGLVQAGGSLRLSCAASRSIFRGYAMGWYRQAPVKETELVAAITQRAGSTYYADSVKGRFTISRDNAKNTVYLQMISLKPEDTAVYYCAADFYYAYYWGQGTQVTVSS", "polyreactivity (PSR sort gate)": "low polyreactivity"}
{"sequence": "QVQLVESGGGLVQAGGSLRLSCAASGFIFRYYALGWYRQAPGKERELVAAISWRGGTTYYADSVKGRFTISRDNAKNTVYLQMQSLKPEDTAVYYCAADWQWDLGPYIYQVEYWGQGTLVTVSS", "polyreactivity (PSR sort gate)": "high polyreactivity"}
{"sequence": "QVQLVESGGGLVQAGGSLRLSCAASGSIFRKNAMGWYRQAPGKETELVAAITGSGRTTYADSVKGRFTISRDNAKNTVYLQMNSLKPEDTAVYYCAADVNYYQHRLYYWGQGTQVTVSS", "polyreactivity (PSR sort gate)": "low polyreactivity"}
{"sequence": "QVQLEESGGRLVQAGGSLRLSCAASGRTFYVYALGWYRQAPGKEREFVAAISGSGGSTFYADSVKGRFTISRDNPKNTVYLQMNSLKPEDTAVYYCATGGSYLYYLKFGHLSAFDYWGQGTQVTVSS", "polyreactivity (PSR sort gate)": "low polyreactivity"}
{"sequence": "QLQLVESGGGLVQAGGSLRLSCAASGRIFGNYAMGWYRQAPGKERELVASINIGGGSTYYADSVKGRFTISRDNAKNTVYLQMNSLKQEATAVYYCAAPNTTDYWPAQPGFDYWGQGTQVTVSS", "polyreactivity (PSR sort gate)": "low polyreactivity"}
{"sequence": "QVQLVESGGGLVQAGGSLRLSCAASGSIFPFNAMGWYRQAPGKERELVAAITRSGGSTYYADSVKGRFTISRDNAKNTVYLQMNSLKPEDTAVYYCANDPEWPLPDFYYWGQGTQVTVSS", "polyreactivity (PSR sort gate)": "low polyreactivity"}
{"sequence": "QVQLVESGGGLVQAGGSLRLSCAASGRIFGRYAMGWYRQAPGKEREFVAAISWRGGTTYYADSVKGRFTISRDNAKNTVYLQMNSLKPEDTAVYYCNARYQTGGYGYWGQGTQVTVSS", "polyreactivity (PSR sort gate)": "high polyreactivity"}
{"sequence": "QVQLVESGGGLVQAGGSLRLSCAASGSIFVYYSMGWYRQAPGKERELVATISSGASTYYADSVKGRFTISRDNAKNTVYLQMNSLKPEDTAVYYCNADNLAGSVEHDYWGQGTQVTVSS", "polyreactivity (PSR sort gate)": "low polyreactivity"}
{"sequence": "QVQLVESGGGLVQAGGSLRLSCAASGSIFGLYAMGWYRQAPGKERELVAAISGSGSRTYYADSVKGRFTISRDNAKNTVYLQMNSLKPEDTAVYYCAADRYWYGVHASIYYYWGQGTQVTVSS", "polyreactivity (PSR sort gate)": "high polyreactivity"}
{"sequence": "QVQLVESGGGLVQAGGSLRLSCPASGRIFRYYPMGWYRQAPGKEREFVAGITWSGGRTYYADSVKGRFTISRDNAKNTVFVQMNSLKPEDTAVYYCNADAGTRVGWWDDYDYWGQGTQVTVSS", "polyreactivity (PSR sort gate)": "low polyreactivity"}
{"sequence": "HVQLGESGGGLVQAGGSLRLSCAASGFIFDVYAMGWYRQAPGKERELVAAISSSGGRTYYADSVKGRFTISRDNAKNTVYLQMNSLKPEDTAVYYCAAKTHSRTKVYTADYWGQGTQVTVSS", "polyreactivity (PSR sort gate)": "high polyreactivity"}
{"sequence": "QVQLVESGGGLVQAGGSLRLSCAASISSSNAMGWYRQAPGKERELVAAIRWSGTSTYYADSVKGRFTISRDNANNTVYLQMNSLKPEETAVYYCAARYVRVGYDYWGQGTQVTVSS", "polyreactivity (PSR sort gate)": "high polyreactivity"}
{"sequence": "QVQLVESAGGLVQAGGSLSIICAASGFTFYGYTMGWYRQAPGKERELVAAITSDGDTNYADSVKGRFTISRDNAKNTVYLQMISLKPVDTAVYYCNADPGYYFYWWPGDYWGQGTQLTVSS", "polyreactivity (PSR sort gate)": "low polyreactivity"}
{"sequence": "QVQLVESGVGLVKAGGSLRLSCAASGFTIRPYAMGWYRQAPGKERELVAAITSGDSTNYADSVKGRFTISRDNAKNTVYLQMNSLKPEDTAVYYCAVDGGEFTSYGYWGQGTQVTVSS", "polyreactivity (PSR sort gate)": "low polyreactivity"}
{"sequence": "QDQLVESGGGLLQAGGSLRLICAASGYTLQGYAMGSSRQATGKERELVAAISSNGGSTYYADSVKGRFTISRDNAKNTVYLEMNSLKPEDTAVYYCNAQYIVYYRYARITKYDYWGQGTQVTVSS", "polyreactivity (PSR sort gate)": "high polyreactivity"}
{"sequence": "QVQLQESGGGLMQAGGSQRLSCAASGSISYYSDMGWYRQAPGKEREFVAGIGYGTTTNYADSVKGRFTTSRDNAKNTVYLQMISMKTEDTAVYYCAAYQGNGYEFYYWGQGTQVTVRS", "polyreactivity (PSR sort gate)": "low polyreactivity"}
{"sequence": "QVQLVESGGGLVQAGGSLRLSCAASGSTFARYAMGWYRQAPGKERELVAGISTSGGRTYYADSVKGRFTISRDNAKNTVYLQMNSLKPEDTAVYYCAKALSQTWYDGQYGYWGQGTQVTVSS", "polyreactivity (PSR sort gate)": "low polyreactivity"}
